How the values were obtained:
[1] = target: LY6A (C57BL/6J allele), expressed from Ly6a cDNA in HEK293T cells (mouse (C57BL/6J)) (UniProt P05533); test: bound vector genome assay (qPCR of viral genomes on cells); HEK293T cells transfected with Ly6 cDNA or left untransfected; 48 h later chilled to 4°C, recombinant AAV at 10^5 vg/cell for one hour, washed three times with cold PBS; vector genomes normalized to cell genomes
[2] = target: LY6A, endogenous on primary brain microvascular endothelial cells of C57BL/6 mice (mouse (endogenous in C57BL/6 BMVECs)) (UniProt P05533); test: bound vector genome assay (qPCR of viral genomes on cells); primary BMVECs of C57BL/6 mice treated with SaCas9 vectors with sgRNAs against Ly6a or Ly6c1 or no sgRNA; 4°C, one hour, AAV at 10^6 vg/cell; normalized to cells treated with a vector lacking a sgRNA

Row | Substance | fold increase in binding to cells on Ly6a expression [1] [fold] | reduction in binding to BMVECs on Ly6a disruption (~50% reduction of LY6A) [2] [%]
1 | AAV-PHP.eB capsid (engineered AAV9 variant, further evolved from AAV-PHP.B) (from UniProt Q6JC40 1-736; Q6JC40 1-736; Q6JC40 1-736) (complex) | > 50 | 50
2 | AAV-PHP.B capsid (engineered AAV9 variant) (from UniProt Q6JC40 1-736; Q6JC40 1-736; Q6JC40 1-736) (complex) | > 50 | –

Source: paper PMC6855452
